US20140329787A1, “PHYTOPHTHORA PHOSPHOLIPASE C” (Deakin University, priority 2011, published 2014)
“Also recorded” adds a separate entry of the source.

Legend:
[1] = tested on: P. cinnamomi; test: Hyphal growth rate; assay type: cell-based, Phytophthora cinnamomi; settings: data not shown
[2] = tested on: Phytophthora cinnamomi; assay type: cell-based
[3] = tested on: P. sojae; test: Hyphal growth rate; assay type: cell-based, Phytophthora sojae; settings: data not shown
[4] = IP3 production from bovine brain phosphatidylinositols, ESI-MS; assay type: biochemical; settings: CaCl2 or EDTA; three protein batches
Description: All mass spectra were produced using a 6210 MSDTOF mass spectrometer (Agilent Technologies, Australia) with the following conditions: drying gas, nitrogen ([…], 350° C.); nebulizer gas, nitrogen (16 psi); capillary voltage, ±4.0 kV; vaporizer temperature, 350° C.; and cone voltage, 60V, 5 μL.
To test for phospholipase C-like function of Alt-PLC, electrospray ionization mass spectrometry (ESI-MS) was utilized to identify of inositol(1,4,5)triphosphate (IP3) produced from reactions of Alt-PLC with lipids.
Three separate batches of protein (purified from independent transformations) were prepared and reacted with a mixture of phosphatidylinositols from bovine brain in the presence of CaCl2 or in the presence of EDTA. Chloroform phase-extraction was performed and the aqueous phase analysed for the presence of IP3 by ESI-MS.

[5] = In-solution hydrolysis of diC8-PI(4,5)P2, products by ESI-MS, TLC and NMR; assay type: biochemical; settings: with calcium, 60 min
Description: Five milligrams of lyophilised, synthetic 1,2-dioctanol-D-myo-phosphatidylinositol(4,5)bisphosphate (diC8-PI(4,5)P2: Echelon Biosciences, USA) was resuspended in 500 μl of 20 mM tris pH:8.0; to this, 100 μl of 1M CaCl2 and 400 μl of refolded Alt-PLC (0.1 mg/ml) in buffer A4 were added and the reaction allowed to proceed for 60 min. The reaction was stopped by phase separation with the addition of 3.75 ml of chloroform:methanol:12N HCl (2:4:0.1) and mixed thoroughly before the addition of 1.25 ml of chloroform. The solution was then vortexed for 30 sec before addition of 1.25 ml of ddH2O and then further vortexed for 30 seconds. The sample was then centrifuged at 1000 rpm for 10 min in a swinging bucket rotor at 4° C. The upper aqueous layer (containing inositols) and the lower chloroform layer (containing all lipids and phospholipids) were separately lyophilised in glass tubes and stored at −80° C. for further analysis. Further separation of polar and non-polar lipids, developed by the hydrolysis reaction, was performed by resuspending the lyophilised, chloroform layer in 1 mil 75% methanol and then adding 1 ml of n-hexane. […]
The unusual nature of this double hydrolysis led the Applicant to perform NMR on the MAG and acyl arg fractions as an additional confirmation of the ESI-MS results. […] NMR spectra were recorded at 400 MHz at −55° C. […]

[6] = tested on: E. coli; test: Growth curves of E. coli expressing Alt-PLC and truncations; assay type: cell-based; settings: relative to E. coli not expressing Alt-PLC
Description: An analysis of function of the Alt-PLC truncations was performed using growth curves of Alt-PLC expressing E. coli cells (FIG. 28).
Therefore, growth curves of E. coli expressing Alt-PLC and the truncations allow determination of Alt-PLC function in vivo.

[7] = Hydrolysis of PIPx, neutral-lipid TLC; assay type: biochemical; settings: 0.2 mg/ml enzyme; listed as Alt-PLC1
Description: Lipid samples of 0.5 μl were applied to silica 60 TLC plates and allowed to dry prior to the addition of more sample. Neutral lipids were applied to 10×20 cm pre-absorption zone-bearing silica-60 plates (Sigma-Aldrich, USA) and resolved in a solvent mixture of hexane:diethyl ether:acetic acid (9:1:0.5). Phospholipids were resolved on 20×20 cm silica-60 plates (Merck, Australia), without a pre-absorption zone, in a solvent mixture of chloroform:methanol:acetic acid:water (90:40:12:2). Lipids were detected by spraying the dried TLC plates with a solution of 0.05% rhodamine B (Sigma) in methanol and destaining was performed by repeated spraying with 5 M KOH. Lipid spots were then visualised following UV excitation at 312 nm.
Alt-PLC and Alt-PLC2 were refolded into buffer A4 at a concentration of 0.2 mg/ml and a hydrolysis reaction was performed using PIPx (mixed phosphatidylinositols, Sigma) as the substrate. The reaction was performed as described previously and the resultant neutral lipids were extracted by diethyl ether phase extraction. The samples were analysed by neutral-lipid thin-layer chromatography, on silica 60 plates with a pre-absorption zone; the mobile phase employed was hexane: diethyl ether: acetic acid (9:1:0.5).

COc1ccc2c(c1)CC[C@@H]1[C@@H]2CC[C@]2(C)[C@@H](NCCCCCCN3C(=O)C=CC3=O)CC[C@@H]12 [U-73122]
hyphal growth rate [1]: markedly reduces hyphal growth rate | PIP2 level and distribution in hyphae [2]: PIP2 increased; also recorded: PIP2 showed an almost uniform membrane distribution, indicating uncontrolled accumulation | hyphal growth rate [3]: markedly reduces hyphal growth rate

B1: Alt-PLC: Phytophthora sojae alternative phospholipase C, SEQ ID NO: 5; codon optimised, his-tagged, expressed in E. coli (protein, listed as Phytophthora sojae)
chain: MASGWRQKPRLDPWDPPSPPPLLEEAAPKPKPKTSRFSRRSTRAKSHARQQAQHVELEVEEHAEQRDRDKRRSLLASMFGERAQSRASRSSSDASALQSQTQTLVQREKAFRLVRHGSDPLLNDAFYATQVQVGNFVKMGWLTKQGHMWKSWKTRFFVLFSDGTFAYYKNKGRKKIKGCMQLNDGVVSVQHVDIRLADKAYVFQIEKGFYKLLCYCCSQFEAELWVAALRSVRRVAPPCYEMDLTATEEKAGSNAVTRHLNKIFITDKQIAKRLAEFKANTHDHSYAAIHNFIVELDDAIIDRHHLEFYQDAEIELLPGNELVRLIRRHVEDRVFIPLYAEAYASLETDKVKTRRSNLEQHLKVLKQKTQADFGISKDLSVCNWKQAISVVNMLDCVSLPTHKFEVILSAGKAIMELIAQYNGELFEVSDEMLTAIFRYVVTMSSLSDLPTLRALLKYGYQHHPASQNKANVVTAFLNAIKWVECFEAGDESYQFDSLALAGSRVSVSISTNDVGIQFTTDGNGRGAIVYNIRKQSQAALSAAIVPGLSLIAINHEPVIALEFAVKIDYSHRIEVDKSASYLGSQMPNSSWKMVDKDDHVSRSARPGSVDDLIRELVAGTEVDLVDVVSFVLFLDSFSSLNEVVDRLSAHVRNGVKSHGLIRLFIVVLLFRQSETKEADDLRDRFYSLISLNIDAKDKLVPLVEEYMSLYKEYFSLRGAGNYAVNYQAIPGMMSKVYGMESGFEPVSSGPFSAHLHRFVDAERWAEQCTLLTHAVFCKIPVRDFIPTGSKKKHSVEFTSIKRWFQHISAFVINAVLVQNTPEERAEVISFYLKLSLDAKKMMNEMQLLSDKGCREMNRLMRKTANPSMPYIGLYLQGFVGLNELPAFDKEGLVNANRLRRMGELAMEILHRQSVAYTLQHDEDVNKLLHVSLPYSSEESRYARSLELEPREADAIPLSDRGSYTLIDDDVDLENEVRESIGGDGTFGFRQWIRKQQVVHRNRSRSSVIALYEWV
modifications: His tag
notes: codon optimised, his-tagged, expressed in E. coli
IP3 production (m/z 160.6) [4]: IP3 was produced in the Ca^2+-activated reactions, but was not produced in the presence of EDTA | products of hydrolysis [5]: 1-monacylglycerol, a free fatty acid (FFA) and inositol(1,4,5)triphosphate | growth of expressing E. coli (function in vivo) [6]: characteristic reduced growth of the bacteria | monoacylglycerol production / phospholipase C activity level in vitro [7]: detection of monoacylglycerol production; also recorded: higher activity level in vitro than Alt-PLC2
